Patent US20260132208A1 (DOMAIN THERAPEUTICS, published 2026)
Values joined by “and” are separate entries in the source; they are usually repeats but may differ in a detail not shown here. Equal entries are not always repeated. Blank lines part the entries; values can stand above or below the binder they belong to.

Legend:
[1] = biological target: T1, human CCR8 (human, UniProt P51685 1-355); experiment: cell-based or functional assay
[2] = biological target: T2, pm6 (Y16 and Y17 sulfated; Y15 not sulfated); experiment: ELISA on coated peptide [cont.]
T2 construct: also called sulfated CCR8 N-terminal peptide pm6
Procedure, shortened: (§1)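 Binding signal was the OD following TMB colour development for 15 min. The mAbs (1 μg/mL and a 1/10 dilution) were incubated 90 min at room temperature on wells coated with 500 ng/ml peptide.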

[3] = biological target: T3, pm8 (Y15, Y16 and Y17 sulfated); experiment: ELISA on coated peptide [cont.]
T3 construct: also called sulfated CCR8 N-terminal peptide pm8
Procedure, shortened: as §1

[4] = biological target: T4, pm3 (Y17 sulfated; Y15 and Y16 not sulfated); experiment: ELISA on coated peptide [cont.]
T4 construct: also called sulfated CCR8 N-terminal peptide pm3
Procedure, shortened: as §1

[5] = biological target: T5, pwt1 (none (unmodified peptide)); experiment: ELISA on coated peptide [cont.]
T5 construct: also called unmodified CCR8 N-terminal peptide
Procedure, shortened: as §1

[6] = biological target: T6, pm2 (sulfated tyrosine(s) among Y15, Y16, Y17; which ones is not told (the underlining of Table 1 is lost in the text)); experiment: ELISA on coated peptide [cont.]
T6 construct: also called sulfated CCR8 N-terminal peptide pm2
Procedure, shortened: as §1

[7] = biological target: T7, pm1 (sulfated tyrosine(s) among Y15, Y16, Y17; which ones is not told (the underlining of Table 1 is lost in the text)); experiment: ELISA on coated peptide [cont.]
T7 construct: also called sulfated CCR8 N-terminal peptide pm1
Procedure, shortened: as §1

[8] = biological target: T8, pm5 (Y15 and Y17 sulfated; Y16 not sulfated); experiment: ELISA on coated peptide [cont.]
T8 construct: also called sulfated CCR8 N-terminal peptide pm5
Procedure, shortened: as §1

[9] = biological target: T1, human CCR8; experiment: cell-based or functional assay; remark: listed apart in the source
[10] = biological target: T1, human CCR8; experiment: cell-based or functional assay; remark: listed apart in the source
[11] = biological target: T1, human CCR8; experiment: cell-based or functional assay; remark: listed apart in the source
[12] = biological target: T1, human CCR8; experiment: flow cytometry, inhibition of hCCL1-AF647 (10 nM) binding to hCCR8-CHO cells
Procedure, shortened: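 hCCR8-transfected CHO cells preincubated 30 min at 4 °C with anti-CCR8 mAb (8 concentrations, top 10 μg/mL, 1/3 dilutions), washed, then exposed to labelled CCL1. Bound CCL1 quantified by flow cytometry; IC₅₀ of binding blockade from sigmoidal variable-slope fit.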

[13] = biological target: T1, human CCR8; experiment: flow cytometry, hCCR8-transfected CHO-K1 cells
Procedure, shortened: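 Antibody incubation ran 30 min at 4° C, followed by fluorescent anti-mouse or anti-human IgG secondary for 30 min at 4° C. Isotype-matched mAbs served as nonspecific-binding controls.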

[14] = biological target: T1, human CCR8; experiment: cell-based or functional assay; remark: listed apart in the source
[15] = biological target: T9, human CCR8 with a SNAP-tag at the N-terminus (human, UniProt P51685 1-355, SNAP-tag labelled covalently with Lumi4-Terbium); experiment: HTRF Tag-lite, inhibition of hCCL1-AF647 binding to SNAP-hCCR8 on HEK-293 cells
T9 construct: also called hCCR8 SNAP-tag; CCR8 SNAP-tag
Procedure: The inhibition of CCL1 binding to hCCR8 was evaluated with the Tag-Lite® technology from Cisbio (Revvity). Human CCR8 is engineered with a SNAP-tag at the N-terminus of the GPCR. hCCR8 SNAP-tag is transiently transfected on HEK-293 cell line using FuGene® (Promega, Madison, WI, USA). 48 hours after transfection, cells are labeled with the substrate Lumi4-Terbium® (Cisbio, Codolet, France) which covalently reacts with the SNAP-tag, for 1 h at 37° C. Thawed or freshly labeled cells are plated in a 384 low volume white plate (GREINER Bio-One, Courtaboeuf, France) (10000 cells/well/10 μl). […] The Kd was previously obtained in a saturation binding assay on the same cells. […] The plate is next incubated at 21° C. for 2 h. Detection of HTRF signal is performed on the multiplate reader EnVision (PerkinElmer, Waltham, MA, USA). The HTRF (665/620) ratio is calculated by EnVision software, the data exported are considered as the total binding. The specific binding is calculated then by subtracting the non-specific signal from the total binding. The Ki and IC₅₀ are calculated using the “One site-Fit Ki” and “One site-FitlogIC50” from GraphPad Prism 9 (Graphpad Software, San Diego, CA, USA), respectively.

[16] = biological target: T9, human CCR8 with a SNAP-tag at the …; experiment: cell-based or functional assay
[17] = biological target: T10, pm4 (sulfated tyrosine(s) among Y15, Y16, Y17; which ones is not told (the underlining of Table 1 is lost in the text)); experiment: ELISA on coated peptide [cont.]
T10 construct: also called sulfated CCR8 N-terminal peptide pm4
Procedure, shortened: as §1

T4 sequence (peptide, as listed by the source): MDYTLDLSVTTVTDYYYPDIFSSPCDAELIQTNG
T8 sequence (peptide, as listed by the source): as above
T3 sequence (peptide, as listed by the source): as above
T6 sequence (peptide, as listed by the source): as above
T2 sequence (peptide, as listed by the source): as above
T7 sequence (peptide, as listed by the source): as above
T5 sequence (peptide, as listed by the source): as above
T10 sequence (peptide, as listed by the source): as above

ADCC % max lysis, HUT78 targets, NK donor 1 [1]: 31%
ADCC % max lysis, HUT78 targets, NK donor 2 [1]: 26%
ADCC EC50, HUT78 targets, NK donor 1 [1]: 0.0733 nM
ADCC EC50, HUT78 targets, NK donor 2 [1]: 0.0904 nM
B1: anti-CCR8 mAb 1-28 (antibody, human IgG1, kappa, V domains shown)
VH: EVQLVESGGGLVQPTGSLRLSCAASGFTFNAYAMNWVRQAPGKGLEWVARIRSKSNDYATYYGDSVKDRFTISRDDSQSMLYLQMNNLKTEDTAMYYCVRGREAYYRYDGGYYAMDYWGQGTSVTVSS
VL: DIVMTQAAPSVSVTPGESVSISCTSSKSLLHSNGNTYLYWFLQRPGQSPQLLIYRMSNLASGVPDRFSGSGSGTAFTLRISRVEAEDVGVYYCMQHREYPFTFGSGTKLEIKR

binding result [2]: binds
binding result [3]: binds
binding result [4]: binds
binding result [5]: binds
binding result [6]: binds
binding result [7]: binds
binding result [8]: binds
IC50 of CCL1-induced hCCR8 Gi2 signaling (BRET), pH 6.5 [9]: 0.414 µg/ml and 2.76 nM
IC50 of CCL1-induced hCCR8 Gi2 signaling (BRET), pH 7.4 [9]: 0.359 µg/ml and 2.4 nM
extrapolated top plateau of hCCL1 curve with 5 µg/mL mAb, protocol #3 [10]: 133 % of hCCL1 (100 nM)
residual hCCL1 (100 nM) Gi2 response, protocol #2, mAb 0.08 µg/mL [11]: 99%
residual hCCL1 (100 nM) Gi2 response, protocol #2, mAb 0.4 µg/mL [11]: 97%
residual hCCL1 (100 nM) Gi2 response, protocol #2, mAb 10 µg/mL [11]: 97%
residual hCCL1 (100 nM) Gi2 response, protocol #3, mAb 0.05 µg/mL [11]: 99%
residual hCCL1 (100 nM) Gi2 response, protocol #3, mAb 0.5 µg/mL [11]: 84%
residual hCCL1 (100 nM) Gi2 response, protocol #3, mAb 5 µg/mL [11]: 75%
IC50 [12]: 15.2 nM and 2.65 µg/mL
% positive cells [13]: 85.2%
MFI fold change to isotype ctrl [13]: 11.9 fold
IC50 of CCL1-induced hCCR8 Gi2 signaling (BRET, HEK-293) [14]: 0.143 µg/mL and 0.954 nM
B2: anti-CCR8 mAb 1-5 (antibody, V domains shown)
VH: QVQLKESGPGLVAPSQSLSITCTVSGLSMNDYVVTWIRQPPGKGLEWLGVIWGGGNTYYNSDLKSRLSITKDNSKSQVFFKMSSLQTDDTAVYYCARRHRDYALDYWGQGISVTVSS
VL: DVVMTQTPLSLPVSLGDQASISCRSSQSLVYSNGNTYLHWYLQKPGQSPKLLIYKVSNRFSGVPDRFSGSGSGTDFTLKISRVEAEDLGVYFCSQSTYVPPTFGGGTKLEIK
notes: Murine hybridoma mAb

IC50 [15]: 0.45 µg/mL
Ki [15]: 0.23 µg/mL
IC50 [12]: 0.65 µg/mL
% positive cells [13]: 75.1%
% hCCR8 internalization with CCL1 300 nM, mAb 1 µg/ml (HTRF) [16]: 126%
% hCCR8 internalization with CCL1 300 nM, mAb 10 µg/ml (HTRF) [16]: 111%
IC50 of CCL1-induced hCCR8 Gi2 signaling (BRET, HEK-293) [14]: 0.101 µg/mL and 0.675 nM
B3: Ref #1 (antibody, human IgG1, V domains shown)
VH: EVQLLESGGGLVQPGGSLRLSCAASGFTFSSYGMHWVRQAPGKGLEWVSAINWNGGSTGYADSVKGRFTISRDNSKNTLYLQMNSLRAEDTAVYYCARGHHSGYDGRFFDYWGQGTLVTVSS
VL: QSVLTQPPSVSGAPGQRVTISCTGSSSNIGAGYNVHWYQQLPGTAPKLLIYTNNRRPSGVPDRFSGSKSGTSASLAISGLRSEDEADYYCAAWDASLSGWVFGGGTKLTVL
notes: Benchmark; cloned into vectors encoding heavy and light chains of human IgG1, produced in CHO; also called TPP-21360 of WO 2021/260210

binding result [2]: binds
binding result [3]: binds
binding result [4]: binds
binding result [5]: binds
binding result [6]: binds
binding result [17]: binds
binding result [7]: binds
binding result [8]: binds
extrapolated top plateau of hCCL1 curve with 5 µg/mL mAb, protocol #3 [10]: 948 % of hCCL1 (100 nM)
residual hCCL1 (100 nM) Gi2 response, protocol #2, mAb 0.08 µg/mL [11]: 52%
residual hCCL1 (100 nM) Gi2 response, protocol #2, mAb 0.4 µg/mL [11]: 68%
residual hCCL1 (100 nM) Gi2 response, protocol #2, mAb 10 µg/mL [11]: 53%
residual hCCL1 (100 nM) Gi2 response, protocol #3, mAb 0.05 µg/mL [11]: 76%
residual hCCL1 (100 nM) Gi2 response, protocol #3, mAb 0.5 µg/mL [11]: 62%
residual hCCL1 (100 nM) Gi2 response, protocol #3, mAb 5 µg/mL [11]: 59%
IC50 [12]: 0.22 µg/mL and 1.46 nM
% positive cells [13]: 77%
MFI fold change to isotype ctrl [13]: 9.2 fold
IC50 of CCL1-induced hCCR8 Gi2 signaling (BRET, HEK-293) [14]: 0.004 µg/mL and 0.029 nM
B4: anti-CCR8 mAb 1-18 (antibody, V domains shown)
VH: QVQVQQSGAELARPGASVKMSCKASGYTFTTYAMHWVKQRPGQGLEWIGHINPSSGYSNYNQKFKDKATLTADKSSSTAYMQLSSLTSEDSAVYYCARSEVRRGYFDVWGAGTTVTVSS
VL: DIQMTQTTSSLSASLGDRVTISCRTSQDIRNYLNWYQQKPDGTVKLLISYTSRLHSGVPSRFSGSGSGTDYSLTISNLEQEDFATYFCQQGNTLPPTFGGGTRVEIK
notes: Murine hybridoma mAb
